Results reported in patent US20160220651A1 (UNIVERSITY OF PITTSBURGH OF THE COMMONWEALTH SYSTEM OF …, published 2016).

B1: PDGFRβ 890-898 peptide ILLWEIFTL (peptide)
peptide: ILLWEIFTL
notes: Synthetic peptide (Fmoc), >96% pure; also called PDGFRβ (891)

Biological target: T1, HLA-A2 complexes expressed by T2 cells (human)
T1 construct: whole, on cells; also called HLA-A2.1 class I molecule
Assay: T2 class I stabilization assay, flow cytometry

Binder	binding result
VLLGAVCGV (Synthetic peptide (Fmoc), >96% pure) [NRP1 869-877 peptide VLLGAVCGV]	binds
GMLGMVSGL (Synthetic peptide (Fmoc), >96% pure) [NRP1 433-441 peptide GMLGMVSGL]	binds
YLQVDLRFL (Synthetic peptide (Fmoc), >96% pure) [NRP2 328-336 peptide YLQVDLRFL]	binds
FLNKCETWV (Synthetic peptide (Fmoc), >96% pure) [DLK1 326-334 peptide FLNKCETWV]	binds
B1	binds
LAALPHSCL (Synthetic peptide (Fmoc), >96% pure) [RGS5 5-13 peptide LAALPHSCL]	binds
RLLGNVLVCV (Synthetic peptide (Fmoc), >96% pure) [HBB 105-114 peptide RLLGNVLVCV]	binds
NMLGMLSGL (Synthetic peptide (Fmoc), >96% pure) [NRP2 436-444 peptide NMLGMLSGL]	binds
DIWDGIPHV (Synthetic peptide (Fmoc), >96% pure) [NRP2 214-222 peptide DIWDGIPHV]	binds
GLLRFVTAV (Synthetic peptide (Fmoc), >96% pure) [NRP1 331-339 peptide GLLRFVTAV]	binds
ILGVLTSLV (Synthetic peptide (Fmoc), >96% pure) [DLK1 310-318 peptide ILGVLTSLV]	binds
TLFWLLLTL (Synthetic peptide (Fmoc), >96% pure) [VEGFR1 770-778 peptide TLFWLLLTL]	binds
RLTPGVHEL (Synthetic peptide (Fmoc), >96% pure) [DLK1 269-277 peptide RLTPGVHEL]	binds
TLADFDPRV (Synthetic peptide (Fmoc), >96% pure) [EphA2 883-891 peptide TLADFDPRV]	binds
RLLVVYPWT (Synthetic peptide (Fmoc), >96% pure) [HBB 31-39 peptide RLLVVYPWT]	binds
LLVPTCVFLV (Synthetic peptide (Fmoc), >96% pure) [TEM1 691-700 peptide LLVPTCVFLV]	binds
LILPLLFYL (Synthetic peptide (Fmoc), >96% pure) [NG2 2238-2246 peptide LILPLLFYL]	binds
VIAMFFWLL (Synthetic peptide (Fmoc), >96% pure) [VEGFR2 773-781 peptide VIAMFFWLL]	binds
TLSNLSFPV (Synthetic peptide (Fmoc), >96% pure) [NG2 770-778 peptide TLSNLSFPV]	binds
